Changes are numbered by the printed parent chain. Read-outs that look alike come from different tables or passages of the source.
T1: circularly permuted human TfR apical domain (human)
T1 construct: TfR residues 326-379 stand N-terminal to 194-296, loop 297-325 deleted; also called huTfR Apical Domain
T1 chain: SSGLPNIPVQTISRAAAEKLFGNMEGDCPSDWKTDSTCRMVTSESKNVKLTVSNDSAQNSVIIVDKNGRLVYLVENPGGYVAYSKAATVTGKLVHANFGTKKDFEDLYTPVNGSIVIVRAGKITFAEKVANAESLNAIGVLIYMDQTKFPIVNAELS

B1: human CD98hc (receptor)
chain: CRELPAQKWWHTGALYRIGDLQAFQGHGAGNLAGLKGRLDYLSSLKVKGLVLGPIHKNQKDDVAQTDLLQIDPNFGSKEDFDSLLQSAKKKSIRVILDLTPNYRGENSWFSTQVDTVATKVKDALEFWLQAGVDGFQVRDIENLKDASSFLAEWQNITKGFSEDRLLIAGTNSSDLQQILSLLESNKDLLLTSSYLSDSGSTGEHTKSLVTQYLNATGNRWCSWSLSQARLLTSFLPAQLLRLYQLMLFTLPGTPVFSYGDEIGLDAAALPGQPMEAPVMLWDESSFPDIPGAVSANMTVKGQSEDPGSLLSLFRRLSDQRSKERSLLHGDFHAFSAGPGLFSYIRHWDQNERFLVVLNFGDVGLSAGLQASDLPASASLPAKADLLLSTQPGREEGSPLELERLKLEPHEGLLLRFPYAA
notes: also called huCD98hc; CD98 heavy chain
B2: Clone 27: LLB2-10-8 monovalent, non-binding Fabs, LALAPG (Fc fusion)
chain 1: APEAAGGPSVFLFPPKPKDTLMISRTPEVTCVVVDVSHEDPEVKFNWYVDGVEVHNAKTKPREEQYNSTYRVVSVLTVLHQDWLNGKEYKCKVSNKALGAPIEKTISKAKGQPREPQVYTLPPSRDELTKNQVSLWCLVKGFYPSDIAVLWNSRFVLENNYKTTPPVLDSDGSFFLYSKLTVDKSRWQQGEIFACNVYHEALHNHYTFKNLALSPGK
chain 2: APEAAGGPSVFLFPPKPKDTLMISRTPEVTCVVVDVSHEDPEVKFNWYVDGVEVHNAKTKPREEQYNSTYRVVSVLTVLHQDWLNGKEYKCKVSNKALGAPIEKTISKAKGQPREPQVYTLPPSRDELTKNQVSLSCAVKGFYPSDIAVEWESNGQPENNYKTTPPVLDSDGSFFLVSKLTVDKSRWQQGNVFSCSVMHEALHNHYTQKSLSLSPGK
notes: effector negative (LALAPG)
B3: human CD98hc (receptor)
chain: B1 chain
notes: as for B1
B4: 6.5.11.1 bivalent (Fc fusion)
chain: APELLGGPSVFLFPPKPKDTLMISRTPEVTCVVVDVSHEDPEVKFNWYVDGVEVHNAKTKPREEQYNSTYRVVSVLTVLHQDWLNGKEYKCKVSNKALPAPIEKTISKAKGQPREPQVYTLPPSRDELTKNQVSLTCLVKGFYPSDIAVNWFSNGQIENNYKTTPPVLDSDGSFFLYSKLTVDKSRWQQGNLFACEVMHEALHNHYTYKLLSLSPGK
notes: also called Clone 6.5.11.1 bivalent
B5: 6.5.11.5.42 bivalent (Fc fusion)
chain: B4 chain with L4A, L5A, N150Y, N154G, I157R
notes: both Fc with LALA

Assays:
LLB2-10-6 Mono = molecular target: T2, LLB2-10-6 Mono (Homo sapiens (Human), UniProt P0DOX5 233-449 = IgG part; P0DOX5 233-449 = IgG part, T366W); assay: SPR (Biacore)
T2 construct: Fc parts only
In short: (§1)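 Binding affinity (Kd) of the engineered Fc polypeptides for CD98hc was measured by surface plasmon resonance on a Biacore instrument. Clones were cloned, expressed and purified as Fc-Fab fusions carrying anti-BACE1 Fabs. They were tested in a bivalent format or in a monovalent knob/hole format with the CD98hc-binding site on the knob chain only. The text gives no concentrations, temperature, buffer or replicate numbers.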

[1] = molecular target: T3, LLB2-37 (monovalent, Table A6) (Homo sapiens (Human), UniProt P0DOX5 233-449 = IgG part; P0DOX5 233-449 = IgG part, T366W); assay: SPR (Biacore)
T3 construct: Fc parts only
In short: as §1

LLB2.10.8.2.1 = molecular target: T4, LLB2.10.8.2.1 (Homo sapiens (Human), UniProt P0DOX5 233-449 = IgG part; P0DOX5 233-449 = IgG part, T366W); assay: SPR (Biacore)
T4 construct: Fc parts only
In short: as §1

LLB2.10.8.12.5 = molecular target: T5, LLB2.10.8.12.5 (Homo sapiens (Human), UniProt P0DOX5 233-449 = IgG part; P0DOX5 233-449 = IgG part, T366W); assay: SPR (Biacore)
T5 construct: Fc parts only
In short: as §1

LLB2.10.8.4.12 = molecular target: T6, LLB2.10.8.4.12 (Homo sapiens (Human), UniProt P0DOX5 233-449 = IgG part; P0DOX5 233-449 = IgG part, T366W); assay: SPR (Biacore)
T6 construct: Fc parts only
In short: as §1

LLB2.10.8.10.1 = molecular target: T7, LLB2.10.8.10.1 (Homo sapiens (Human), UniProt P0DOX5 233-449 = IgG part; P0DOX5 233-449 = IgG part, T366W); assay: SPR (Biacore)
T7 construct: Fc parts only
In short: as §1

LLB2.10.8.10.3 = molecular target: T8, LLB2.10.8.10.3 (Homo sapiens (Human), UniProt P0DOX5 233-449 = IgG part; P0DOX5 233-449 = IgG part, T366W); assay: SPR (Biacore)
T8 construct: Fc parts only
In short: as §1

LLB2.10.8.10.8 = molecular target: T9, LLB2.10.8.10.8 (Homo sapiens (Human), UniProt P0DOX5 233-449 = IgG part; P0DOX5 233-449 = IgG part, T366W); assay: SPR (Biacore)
T9 construct: Fc parts only
In short: as §1

LLB2-10-8-d1 MV = molecular target: T10, LLB2-10-8-d1 MV (Homo sapiens (Human), UniProt P0DOX5 233-449 = IgG part; P0DOX5 233-449 = IgG part, T366W); assay: SPR (Biacore)
T10 construct: Fc parts only; MV = monovalent
In short: as §1

LLB2-10-8-d3 MV = molecular target: T11, LLB2-10-8-d3 MV (Homo sapiens (Human), UniProt P0DOX5 233-449 = IgG part; P0DOX5 233-449 = IgG part, T366W); assay: SPR (Biacore)
T11 construct: Fc parts only; MV = monovalent
In short: as §1

human CD98hc = molecular target: B3; assay: affinity as listed in study design table; method not given there
[2] = molecular target: T12, Clone 8: LLB2-10-6 monovalent, non-binding Fabs (Homo sapiens (Human), UniProt P0DOX5 233-449 = IgG part; P0DOX5 233-449 = IgG part, T366W); assay: as above
T12 construct: CD98hc site on the knob Fc only; effector positive

[3] = molecular target: T13, Clone 13: LLB1-3-16 monovalent, non-binding Fabs (Homo sapiens (Human), UniProt P0DOX5 233-449 = IgG part; P0DOX5 233-449 = IgG part, T366W); assay: as above
T13 construct: CD98hc site on the knob Fc only; effector positive

[4] = molecular target: T12, Clone 8: LLB2-10-6 monovalent, …; assay: as above; remark: listed apart in the source
[5] = molecular target: T14, Clone 18: LLB2-37 monovalent, non-binding Fabs (Homo sapiens (Human), UniProt P0DOX5 233-449 = IgG part; P0DOX5 233-449 = IgG part, T366W); assay: as above
T14 construct: CD98hc site on the knob Fc only; effector positive

[6] = molecular target: T12, Clone 8: LLB2-10-6 monovalent, …; assay: as above; remark: listed apart in the source
[7] = molecular target: T12, Clone 8: LLB2-10-6 monovalent, …; assay: as above; remark: listed apart in the source
[8] = molecular target: T1, circularly permuted human TfR apical …; assay: Biacore SPR, Fc-Fab fusion
[9] = molecular target: T1, circularly permuted human TfR apical …; assay: Biacore SPR, Fc-Fab fusion; bivalent, LALA

Binder: B1
- Kd (LLB2-10-6 Mono): 420 nM
- Kd [1]: 390 nM
- Kd (LLB2.10.8.2.1): 110 nM
- Kd (LLB2.10.8.12.5): 230 nM
- Kd (LLB2.10.8.4.12): 15 nM
- Kd (LLB2.10.8.10.1): 54 nM
- Kd (LLB2.10.8.10.3): 43 nM
- Kd (LLB2.10.8.10.8): 94 nM
- Kd (LLB2-10-8-d1 MV): 250 nM
- Kd (LLB2-10-8-d3 MV): 470 nM

Binder: B2
- Kd (human CD98hc): 100 to 200 nM

Binder: B3
- Kd [2]: 230 nM
- Kd [3]: 32 nM
- Kd [4]: 260 nM
- Kd [5]: 390 nM
- Kd [6]: 260 nM
- Kd [7]: 260 nM

Binder: B4
- Kd [8]: 20 to 40 µM

Binder: B5
- Kd [9]: 2000 nM

From patent US20250145729A1 (DENALI THERAPEUTICS, published 2025)
